From patent US8097440B1, “Engineered microorganisms capable of producing target compounds under anaerobic conditions” (Gevo, Inc., priority 2008, dated 2012)

What was measured:
[1] = test system: Lactococcus lactis alcohol dehydrogenase Ll_AdhA, SEQ ID NO: 67; conditions: NADH as cofactor; cited from earlier work
[2] = substrate: NC(=O)C1=CN([C@@H]2O[C@H](COP(=O)(O)OP(=O)(O)OC[C@H]3O[C@@H](n4cnc5c(N)ncnc54)[C@H](OP(=O)(O)O)[C@@H]3O)[C@@H](O)[C@H]2O)C=CC1; test: KARI cuvette assay, purified Ec_IlvC^B8-his6; format: biochemical, E. coli; conditions: other: purified; acetolactate as substrate
Description: (§1) KARI cuvette assay: KARI activity was assayed kinetically by monitoring the decrease in NAD(P)H concentration by measuring the absorbance at 340 nm. A reaction buffer was prepared containing 250 mM potassium phosphate pH 7, 1 mM DTT and 10 mM MgCl2. Cell pellets were resuspended (0.25 g wet weight/mL buffer) in 250 mM potassium phosphate (KPi) buffer containing 1 mM DTT and 10 mM MgCl2. The resuspended cells were lysed by sonication for 1 min with a 50% duty cycle and pelleted at 11000×g and 4° C. for 15 min. A reaction mixture consisting of 910 μl reaction buffer, 50 μl acetolactate, and 20 μl lysate was prepared in a cuvette. The reaction was initiated by addition of 20 μL of 10 mM NAD(P)H. A substrate free control was conducted using reaction buffer without the addition of acetolactate.
(§2) Purification of KARI: Cell pellets used for purification were resuspended in purification buffer A (20 mM Tris, 20 mM imidazol, 100 mM NaCl, 10 mM MgCl2, pH 7.4). KARI was purified by IMAC (Immobilized metal affinity chromatography) over a 1 ml Histrap High Performance (histrap HP) column pre-charged with Nickel (GE Healthcare) using an Akta FPLC system (GE Healthcare). The column was equilibrated with four column volumes (cv) of buffer A. After injecting the crude extract, the column was washed with buffer A for 2 cv, followed by a wash step with a mixture of 10% elution buffer B (20 mM Tris, 300 mM imidazol, 100 mM NaCl, 10 mM MgCl2, pH 7.4) for 5 cv. KARI variants were eluted at 40% buffer B and stored at 4° C.
(§3) As a next step, the gene encoding variant Ec_llvC^Q110V-his6 (SEQ ID NO: 23) was used as template to generate individual combinations of the mutation Q110V with other mutations: R68L, A71T, A71S, R76G, R76S, R76T, S78D, and R76D. After screening the variants as described above, the most promising ones were expressed, purified, and characterized. Table 29 lists the KM values in μM on NADPH and NADH for Ec_llvC^his6, Ec_llvC^Q110V-his6, and variants of Ec_llvC^Q110V-his6. […] The A71S mutation was introduced into Ec_llvC^B8-his6 resulting in a variant Ec_llvC^B8A71S-his6, which yielded 44% catalytic efficiency on NADH compared to the catalytic efficiency of wild-type KARI on NADPH (FIG. 19 and Table 30).

[3] = substrate: NC(=O)C1=CN([C@@H]2O[C@H](COP(=O)(O)OP(=O)(O)OC[C@H]3O[C@@H](n4cnc5c(N)ncnc54)[C@H](O)[C@@H]3O)[C@@H](O)[C@H]2O)C=CC1; test: KARI cuvette assay, purified Ec_IlvC^B8-his6; format: biochemical, E. coli
Description: as §1, §2, §3

[4] = substrate: NC(=O)C1=CN([C@@H]2O[C@H](COP(=O)(O)OP(=O)(O)OC[C@H]3O[C@@H](n4cnc5c(N)ncnc54)[C@H](OP(=O)(O)O)[C@@H]3O)[C@@H](O)[C@H]2O)C=CC1; test: KARI cuvette assay, purified Ec_IlvC^his6 (parent / wild type); format: biochemical, E. coli; conditions: other: purified; acetolactate as substrate
Description: as §1, §2
(§4) The three best variants Ec_llvC^S78D-his6, Ec_llvC^Q110A-his6, and Ec_llvC^Q110V-his6 were characterized according to their specific activities [U/mg], kcat values [s^−1], catalytic efficiencies [M^−1*s^−1] (FIG. 18), and KM values (Table 27).
(§5) Only 20% of the enzymes of the recombination library were active on NADH. After screening 1,000 clones using the NADH depletion assay at 340 nm, 26 KARI variants were selected for a rescreen by the high-throughput assay described in Example 14 and eight thereof were expressed in 25 ml LBamp medium in shake flasks according to the protocol for cell growth and protein expression in shake flasks as described in Example 14, purified according to the protocol for purification of KARI enzymes as described in Example 14, and NAD(P)H depletion at 340 nm was measured again. […] The KM values of variants Ec_llvC^2H10-his6 and Ec_llvC^6E6-his6 were measured and the catalytic efficiencies were calculated.

[5] = substrate: NC(=O)C1=CN([C@@H]2O[C@H](COP(=O)(O)OP(=O)(O)OC[C@H]3O[C@@H](n4cnc5c(N)ncnc54)[C@H](O)[C@@H]3O)[C@@H](O)[C@H]2O)C=CC1; test: as above; format: biochemical, E. coli
Description: as §1, §2, §4, §5

[6] = substrate: NC(=O)C1=CN([C@@H]2O[C@H](COP(=O)(O)OP(=O)(O)OC[C@H]3O[C@@H](n4cnc5c(N)ncnc54)[C@H](OP(=O)(O)O)[C@@H]3O)[C@@H](O)[C@H]2O)C=CC1; test: KARI assay, purified Ec_IlvC^2H10-his6; format: biochemical, E. coli; conditions: other: purified; acetolactate as substrate
Description: as §1, §2, §5

[7] = substrate: NC(=O)C1=CN([C@@H]2O[C@H](COP(=O)(O)OP(=O)(O)OC[C@H]3O[C@@H](n4cnc5c(N)ncnc54)[C@H](O)[C@@H]3O)[C@@H](O)[C@H]2O)C=CC1; test: KARI assay, purified Ec_IlvC^2H10-his6; format: biochemical, E. coli; conditions: other: purified; acetolactate as substrate
Description: as §1, §2, §5

[8] = other: purified, acetolactate as substrate

CC(C)C=O [isobutyraldehyde]
Km [1]: 9100 µM | kcat [1]: 6.6 s⁻¹

CC=O [Acetaldehyde]
Km [1]: 500 µM | kcat [1]: 10 s⁻¹

B1: E. coli KARI Ec_IlvC variant Ec_IlvC^B8-his6 (Q110V, S78D), SEQ ID NO: 27 (Escherichia coli K-12; Q110V/S78D) (protein)
chain: MANYFNTLNLRQQLAQLGKCRFMGRDEFADGASYLQGKKVVIVGCGAQGLNQGLNMRDSGLDISYALRKEAIAEKRADWRKATENGFKVGTYEELIPQADLVINLTPDKVHSDVVRTVQPLMKDGAALGYSHGFNIVEVGEQIRKDITVVMVAPKCPGTEVREEYKRGFGVPTLIAVHPENDPKGEGMAIAKAWAAATGGHRAGVLESSFVAEVKSDLMGEQTILCGMLQAGSLLCFDKLVEEGTDPAYAEKLIQFGWETITEALKQGGITLMMDRLSNPAKLRAYALSEQLKEIMAPLFQKHMDDIISGEFSSGMMADWANDDKKLLTWREETGKTAFETAPQYEGKIGEQEYFDKGVLMIAMVKAGVELAFETMVDSGIIEESAYYESLHELPLIANTIARKRLYEMNVVISDTAEYGNYLFSYACVPLLKPFMAELQPGDLGKAIPEGAVDNGQLRDVNEAIRSHAIEQVGKKLRGYMTDMKRIAVAGLEHHHHHH
Km [2]: 65 µM | kcat [2]: 2.2 s⁻¹ | kcat/Km [2]: 34,188 M^−1 * s^−1 | Km [3, 8]: 65 µM | kcat [3, 8]: 2.0 s⁻¹ | kcat/Km [3, 8]: 31,775 M^−1 * s^−1 | kcat/Km ([3]; with NADH): 34200 M⁻¹ s⁻¹

B2: Escherichia coli KARI (ketol-acid reductoisomerase) Ec_IlvC^his6, wild type IlvC (SEQ ID NO: 13) with his6-tag, SEQ ID NO: 15 (Escherichia coli K-12) (protein)
chain: MANYFNTLNLRQQLAQLGKCRFMGRDEFADGASYLQGKKVVIVGCGAQGLNQGLNMRDSGLDISYALRKEAIAEKRASWRKATENGFKVGTYEELIPQADLVINLTPDKQHSDVVRTVQPLMKDGAALGYSHGFNIVEVGEQIRKDITVVMVAPKCPGTEVREEYKRGFGVPTLIAVHPENDPKGEGMAIAKAWAAATGGHRAGVLESSFVAEVKSDLMGEQTILCGMLQAGSLLCFDKLVEEGTDPAYAEKLIQFGWETITEALKQGGITLMMDRLSNPAKLRAYALSEQLKEIMAPLFQKHMDDIISGEFSSGMMADWANDDKKLLTWREETGKTAFETAPQYEGKIGEQEYFDKGVLMIAMVKAGVELAFETMVDSGIIEESAYYESLHELPLIANTIARKRLYEMNVVISDTAEYGNYLFSYACVPLLKPFMAELQPGDLGKAIPEGAVDNGQLRDVNEAIRSHAIEQVGKKLRGYMTDMKRIAVAGLEHHHHHH
Km [4]: 41 µM | kcat [4]: 3.6 s⁻¹ | kcat/Km [4]: 87300 M⁻¹ s⁻¹ | Km [5, 8]: 1,075 μM | kcat [5, 8]: 1.0 s⁻¹ | kcat/Km [5, 8]: 1,000 M^−1 * s^−1 | kcat/Km ([5]; with NADH): 87300 M⁻¹ s⁻¹

B3: E. coli KARI Ec_IlvC variant Ec_IlvC^2H10-his6 (A71S, R76D, S78D, Q110A), SEQ ID NO: 31 (Escherichia coli K-12; A71S/Q110A/R76D/S78D) (protein)
chain: MANYFNTLNLRQQLAQLGKCRFMGRDEFADGASYLQGKKVVIVGCGAQGLNQGLNMRDSGLDISYALRKESIAEKDADWRKATENGFKVGTYEELIPQADLVINLTPDKAHSDVVRTVQPLMKDGAALGYSHGFNIVEVGEQIRKDITVVMVAPKCPGTEVREEYKRGFGVPTLIAVHPENDPKGEGMAIAKAWAAATGGHRAGVLESSFVAEVKSDLMGEQTILCGMLQAGSLLCFDKLVEEGTDPAYAEKLIQFGWETITEALKQGGITLMMDRLSNPAKLRAYALSEQLKEIMAPLFQKHMDDIISGEFSSGMMADWANDDKKLLTWREETGKTAFETAPQYEGKIGEQEYFDKGVLMIAMVKAGVELAFETMVDSGIIEESAYYESLHELPLIANTIARKRLYEMNVVISDTAEYGNYLFSYACVPLLKPFMAELQPGDLGKAIPEGAVDNGQLRDVNEAIRSHAIEQVGKKLRGYMTDMKRIAVAGLEHHHHHH
notes: T37 values cited for the gene on pGV1976
Km [6]: 568 µM | kcat [6]: 0.61 s⁻¹ | kcat/Km [6]: 1,078 M^−1 * s^−1 | Km [7]: 44.2 µM | kcat [7]: 2.6 s⁻¹ | kcat/Km [7]: 60322 M⁻¹ s⁻¹
